# Measured values from patent US20210388110A1 (published 2021).
# Molecular target: T1, soluble human CD3ε chain (human, UniProt P07766 23-126, limits assumed)
# T1 construct: the text says soluble human CD3ε chain; also called human CD3 epsilon chain
# Test: SPR (Biacore)
# T1 sequence (P07766 23-126 limits assumed): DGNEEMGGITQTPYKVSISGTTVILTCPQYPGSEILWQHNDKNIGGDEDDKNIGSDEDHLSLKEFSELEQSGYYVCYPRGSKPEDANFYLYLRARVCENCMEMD
row,Binder,Kd [nM]
1,"TR01H040-E22Hh/none-Hi-Kn010G3/L0236-k0 (antibody, human IgG1, kappa, L234A L235A, N297A, single-arm) heavy: QVQLVESGGGLVQPGRSLRLSCAASGFTFSNAWMHWVRQAPGKGLEWVAQIKDKSQNYATYYAESVKGRFTISRADSKNSIYLQMNSLKTEDTAVYYCRYVHYSASYGVDAWGQGTTVTVSSASTKGPSVFPLAPSSKSTSGGTAALGCLVKDYFPEPVTVSWNSGALTSGVHTFPAVLQSSGLYSLSSVVTVPSSSLGTQTYICNVNHKPSNTKVDKKVEPKSCDKTHTCPPCPAPEAAGGPSVFLFPPKPKDTLMISRTPEVTCVVVDVSHEDPEVKFNWYVDGVEVHNAKTKPREEQYASTYRVVSVLTVLHQDWLNGKEYKCKVSNKALPAPIEKTISKAKGQPREPQVYTLPPSRCELTKNQVSLSCAVKGFYPSDIAVEWESNGQPENNYKTTPPVLDSDGSFFLVSKLTVDKSRWQQGNVFSCSVMHEALHNHYTQKSLSLSPDYKDDDDK EPKSSDKTHTCPPCPAPELLGGPSVFLFPPKPKDTLMISRTPEVTCVVVDVSHEDPEVKFNWYVDGVEVHNAKTKPREEQYNSTYRVVSVLTVLHQDWLNGKEYKCKVSNKALPAPIEKTISKAKGQPREPQVCTLPPSRDELTKNQVSLWCLVKGFYPSDIAVEWESNGQPENNYKTTPPVLDSDGSFFLYSKLTVDKSRWQQGNVFSCSVMHEALHNRYTQKSLSLSP light: DIVMTQSPLSLPVTPGEPASISCRSSQEPVHSNRNTYLHWYQQKPGQAPRLLIYKVSNRFWGVPDRFSGSGSGTDFTLKISRVEAEDVGVYYCYQGTQVPYTFGQGTKLEIKRTVAAPSVFIFPPSDEQLKSGTASVVCLLNNFYPREAKVQWKVDNALQSGNSQESVTEQDSKDSTYSLSSTLTLSKADYEKHKVYACEVTHQGLSSPVTKSFNRGEC",5.64
2,"TR01H040-E22Hh/none-Hi-Kn010G3/L0239-k0 (antibody, human IgG1, kappa, L234A L235A, N297A, single-arm) heavy: QVQLVESGGGLVQPGRSLRLSCAASGFTFSNAWMHWVRQAPGKGLEWVAQIKDKSQNYATYYAESVKGRFTISRADSKNSIYLQMNSLKTEDTAVYYCRYVHYSASYGVDAWGQGTTVTVSSASTKGPSVFPLAPSSKSTSGGTAALGCLVKDYFPEPVTVSWNSGALTSGVHTFPAVLQSSGLYSLSSVVTVPSSSLGTQTYICNVNHKPSNTKVDKKVEPKSCDKTHTCPPCPAPEAAGGPSVFLFPPKPKDTLMISRTPEVTCVVVDVSHEDPEVKFNWYVDGVEVHNAKTKPREEQYASTYRVVSVLTVLHQDWLNGKEYKCKVSNKALPAPIEKTISKAKGQPREPQVYTLPPSRCELTKNQVSLSCAVKGFYPSDIAVEWESNGQPENNYKTTPPVLDSDGSFFLVSKLTVDKSRWQQGNVFSCSVMHEALHNHYTQKSLSLSPDYKDDDDK EPKSSDKTHTCPPCPAPELLGGPSVFLFPPKPKDTLMISRTPEVTCVVVDVSHEDPEVKFNWYVDGVEVHNAKTKPREEQYNSTYRVVSVLTVLHQDWLNGKEYKCKVSNKALPAPIEKTISKAKGQPREPQVCTLPPSRDELTKNQVSLWCLVKGFYPSDIAVEWESNGQPENNYKTTPPVLDSDGSFFLYSKLTVDKSRWQQGNVFSCSVMHEALHNRYTQKSLSLSP light: DIVMTQSPLSLPVTPGEPASISCRSSESPVHSNRNTYLHWYQQKPGQAPRLLIYKVSNRFRGVPDRFSGSGSGTDFTLKISRVEAEDVGVYYCGQGTQVPYTFGQGTKLEIKRTVAAPSVFIFPPSDEQLKSGTASVVCLLNNFYPREAKVQWKVDNALQSGNSQESVTEQDSKDSTYSLSSTLTLSKADYEKHKVYACEVTHQGLSSPVTKSFNRGEC",23.1
3,"TR01H040-E22Hh/none-Hi-Kn010G3/L0237-k0 (antibody, human IgG1, kappa, L234A L235A, N297A, single-arm) heavy: QVQLVESGGGLVQPGRSLRLSCAASGFTFSNAWMHWVRQAPGKGLEWVAQIKDKSQNYATYYAESVKGRFTISRADSKNSIYLQMNSLKTEDTAVYYCRYVHYSASYGVDAWGQGTTVTVSSASTKGPSVFPLAPSSKSTSGGTAALGCLVKDYFPEPVTVSWNSGALTSGVHTFPAVLQSSGLYSLSSVVTVPSSSLGTQTYICNVNHKPSNTKVDKKVEPKSCDKTHTCPPCPAPEAAGGPSVFLFPPKPKDTLMISRTPEVTCVVVDVSHEDPEVKFNWYVDGVEVHNAKTKPREEQYASTYRVVSVLTVLHQDWLNGKEYKCKVSNKALPAPIEKTISKAKGQPREPQVYTLPPSRCELTKNQVSLSCAVKGFYPSDIAVEWESNGQPENNYKTTPPVLDSDGSFFLVSKLTVDKSRWQQGNVFSCSVMHEALHNHYTQKSLSLSPDYKDDDDK EPKSSDKTHTCPPCPAPELLGGPSVFLFPPKPKDTLMISRTPEVTCVVVDVSHEDPEVKFNWYVDGVEVHNAKTKPREEQYNSTYRVVSVLTVLHQDWLNGKEYKCKVSNKALPAPIEKTISKAKGQPREPQVCTLPPSRDELTKNQVSLWCLVKGFYPSDIAVEWESNGQPENNYKTTPPVLDSDGSFFLYSKLTVDKSRWQQGNVFSCSVMHEALHNRYTQKSLSLSP light: DIVMTQSPLSLPVTPGEPASISCRSSQEPVHSNRNTYIHWYQQKPGQAPRLLIYKVSNRFSGVPDRFSGSGSGTDFTLKISRVEAEDVGVYYCYQGTQVPYTFGQGTKLEIKRTVAAPSVFIFPPSDEQLKSGTASVVCLLNNFYPREAKVQWKVDNALQSGNSQESVTEQDSKDSTYSLSSTLTLSKADYEKHKVYACEVTHQGLSSPVTKSFNRGEC",10.2

# Results, then the binder that gave them:
row,Kd [nM],Binder
1,2.17,"TR01H040-E22Hh/none-Hi-Kn010G3/L0240-k0 (antibody, human IgG1, kappa, L234A L235A, N297A, single-arm) heavy: QVQLVESGGGLVQPGRSLRLSCAASGFTFSNAWMHWVRQAPGKGLEWVAQIKDKSQNYATYYAESVKGRFTISRADSKNSIYLQMNSLKTEDTAVYYCRYVHYSASYGVDAWGQGTTVTVSSASTKGPSVFPLAPSSKSTSGGTAALGCLVKDYFPEPVTVSWNSGALTSGVHTFPAVLQSSGLYSLSSVVTVPSSSLGTQTYICNVNHKPSNTKVDKKVEPKSCDKTHTCPPCPAPEAAGGPSVFLFPPKPKDTLMISRTPEVTCVVVDVSHEDPEVKFNWYVDGVEVHNAKTKPREEQYASTYRVVSVLTVLHQDWLNGKEYKCKVSNKALPAPIEKTISKAKGQPREPQVYTLPPSRCELTKNQVSLSCAVKGFYPSDIAVEWESNGQPENNYKTTPPVLDSDGSFFLVSKLTVDKSRWQQGNVFSCSVMHEALHNHYTQKSLSLSPDYKDDDDK EPKSSDKTHTCPPCPAPELLGGPSVFLFPPKPKDTLMISRTPEVTCVVVDVSHEDPEVKFNWYVDGVEVHNAKTKPREEQYNSTYRVVSVLTVLHQDWLNGKEYKCKVSNKALPAPIEKTISKAKGQPREPQVCTLPPSRDELTKNQVSLWCLVKGFYPSDIAVEWESNGQPENNYKTTPPVLDSDGSFFLYSKLTVDKSRWQQGNVFSCSVMHEALHNRYTQKSLSLSP light: DIVMTQSPLSLPVTPGEPASISCRSSESPVHSNRNTYLHWYQQKPGQAPRLLIYKVSNRFSGVPDRFSGSGSGTDFTLKISRVEAEDVGVYYCYQGTQVPYTFGQGTKLEIKRTVAAPSVFIFPPSDEQLKSGTASVVCLLNNFYPREAKVQWKVDNALQSGNSQESVTEQDSKDSTYSLSSTLTLSKADYEKHKVYACEVTHQGLSSPVTKSFNRGEC"
2,2.91,"TR01H040-E22Hh/none-Hi-Kn010G3/L0238-k0 (antibody, human IgG1, kappa, L234A L235A, N297A, single-arm) heavy: QVQLVESGGGLVQPGRSLRLSCAASGFTFSNAWMHWVRQAPGKGLEWVAQIKDKSQNYATYYAESVKGRFTISRADSKNSIYLQMNSLKTEDTAVYYCRYVHYSASYGVDAWGQGTTVTVSSASTKGPSVFPLAPSSKSTSGGTAALGCLVKDYFPEPVTVSWNSGALTSGVHTFPAVLQSSGLYSLSSVVTVPSSSLGTQTYICNVNHKPSNTKVDKKVEPKSCDKTHTCPPCPAPEAAGGPSVFLFPPKPKDTLMISRTPEVTCVVVDVSHEDPEVKFNWYVDGVEVHNAKTKPREEQYASTYRVVSVLTVLHQDWLNGKEYKCKVSNKALPAPIEKTISKAKGQPREPQVYTLPPSRCELTKNQVSLSCAVKGFYPSDIAVEWESNGQPENNYKTTPPVLDSDGSFFLVSKLTVDKSRWQQGNVFSCSVMHEALHNHYTQKSLSLSPDYKDDDDK EPKSSDKTHTCPPCPAPELLGGPSVFLFPPKPKDTLMISRTPEVTCVVVDVSHEDPEVKFNWYVDGVEVHNAKTKPREEQYNSTYRVVSVLTVLHQDWLNGKEYKCKVSNKALPAPIEKTISKAKGQPREPQVCTLPPSRDELTKNQVSLWCLVKGFYPSDIAVEWESNGQPENNYKTTPPVLDSDGSFFLYSKLTVDKSRWQQGNVFSCSVMHEALHNRYTQKSLSLSP light: DIVMTQSPLSLPVTPGEPASISCRSSEPPVHSNRNTYLHWYQQKPGQAPRLLIYKVSNRFSGVPDRFSGSGSGTDFTLKISRVEAEDVGVYYCYQGTQVPYTFGQGTKLEIKRTVAAPSVFIFPPSDEQLKSGTASVVCLLNNFYPREAKVQWKVDNALQSGNSQESVTEQDSKDSTYSLSSTLTLSKADYEKHKVYACEVTHQGLSSPVTKSFNRGEC"
